According to patent publication CN112250763A (SANYOU BIOPHARMACEUTICALS SHANGHAI CO LTD; SHANGHAI ZJ BIO …, dated 2021):

Biological target: S蛋白RBD-His(319Arg-532Asn) (SARS-CoV-2, UniProt P0DTC2 319-532)

B1: R16-F10抗体 (antibody, V domains shown)
VH: QVQLVQSGPEVKEPGSSVKVSCKASGGTFDTAAISWVRQAPGQGPEWMGGIIPIFGTANYAQKFQGRVTITADESTSTAYMELSSLRSEDTAVYYCAREHTVAPVYGFDVWGQGTLVTVSS
VL: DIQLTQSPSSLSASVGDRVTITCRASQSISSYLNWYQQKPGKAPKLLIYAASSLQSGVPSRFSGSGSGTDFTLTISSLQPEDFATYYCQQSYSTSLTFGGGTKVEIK
B1 gave an EC50 of 0.05 µg/mL.
